Columns and labels:
[1] = ThT assay of autoaggregation of Aβ42 WT or variant peptides; assay type: physicochemical; conditions: 10 μM peptide in PBS, 50 μM ThT, 37° C.
Procedure: HFIP was evaporated overnight in a fume hood and then transferred to SpeedVac for 1 hour to remove any remaining traces of HFIP, Tubes containing the peptide film were kept over desiccant at −20° C. until used. Immediately prior to experimental use, lyophilized peptides were dissolved in 0.1% NH4OH to a final concentration of 100 μM and sonicated for 10 minutes in a bath sonicator.
ThT fluorescence was measured using a Biotek Synergy H1 reader at an excitation wavelength of 440 nm and emission wavelength of 485 nm. Reactions were incubated at 37° C. and then shaken for 5 seconds every 10 minutes prior to reading the fluorescence.

[2] = biological target: T1, human Tau 40 WT (Homo sapiens, UniProt P10636); experiment: ThT assay, inhibition of human Tau 40 WT autoaggregation by Tau inhibitor; assay type: biochemical; conditions: 15 μM Tau protein and 30 μM inhibitor (1:2)
T1 construct: His tag (inferred from Ni-NTA purification and pQE80 vector); made in house; host or cells: E. coli BL21-DE3
Procedure: (§1) All inhibitor peptides were purchased from Biomatik. Dissolution was performed at a working concentration of 1.2 mM in deionized water, with a minimum purity of 95% or higher. Human Tau 40 WT was expressed by the pQE80 vector in BL21-DE3 E. coli cells grown to OD600=0.8 in LB medium. Cells were induced with 1 mM IPTG for 3 hours at 37° C. and further incubated for 4 hours, and then cultured E. coli cells were harvested by centrifugation at 5,000 rpm for 20 minutes. The obtained E. coli was resuspended in a dissolution buffer (50 mM NaH2PO4, NaCl 250 mM, 10 mM imidazole pH 8.0) and then dissolved by sonication. Cell lysates were purified by centrifugation at 15,000 rpm for 15 minutes, and 1 ml of 50% Ni-NTA slurry was added to 4 ml of the supernatant and shaken at 4° C. for 60 minutes (200 rpm on a rotator) to mix gently. […]
(§2) Autoaggregation of human Tau 40 WT or Tau inhibitor was tested using 15 μM of human Tau 40 WT protein or 30 μM of inhibitor (SEQ ID NOs: 22 or 32), 8 μM heparin, and 50 μM ThT. ThT fluorescence was measured using a Biotek Synergy H1 reader at an excitation wavelength of 440 nm and emission wavelength of 485 nm. The reactions were incubated at 37° C., and measured every 15 minutes for 70 hours with orbital vibration of 425 cpm continuously. […]

[3] = ThT assay of autoaggregation of human Tau 40 WT or Tau inhibitor; assay type: physicochemical
Procedure: as §1, §2

T1 sequence (P10636 1-441 isoform P10636-8): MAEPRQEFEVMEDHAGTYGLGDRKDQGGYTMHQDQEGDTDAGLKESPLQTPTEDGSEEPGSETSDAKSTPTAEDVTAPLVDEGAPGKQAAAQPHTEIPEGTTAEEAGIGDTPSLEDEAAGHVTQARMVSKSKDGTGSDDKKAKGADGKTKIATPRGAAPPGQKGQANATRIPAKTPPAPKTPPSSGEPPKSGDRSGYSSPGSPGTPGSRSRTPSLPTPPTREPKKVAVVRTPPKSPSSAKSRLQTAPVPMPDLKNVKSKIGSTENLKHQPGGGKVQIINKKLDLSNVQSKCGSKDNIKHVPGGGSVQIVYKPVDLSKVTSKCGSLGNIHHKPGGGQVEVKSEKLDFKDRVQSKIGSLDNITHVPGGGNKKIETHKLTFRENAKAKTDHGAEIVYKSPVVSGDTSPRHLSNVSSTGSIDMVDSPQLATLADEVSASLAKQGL

Aβ42 WT: wild-type Aβ42 peptide, synthetic, purchased from Biomatik
autoaggregation in ThT assay [1]: generated aggregation

MDVQMINKKLK (Tau inhibitor) [SEQ ID NO: 22]
inhibition of Tau WT aggregation (competition assay) [2]: completely attenuated the aggregation of Tau WT

TVIVITLVMLKDVQMINKKLK (Tau inhibitor) [SEQ ID NO: 32]
inhibition of Tau WT aggregation (competition assay) [2]: completely attenuated the aggregation of Tau WT

Tau WT: Human Tau 40 WT protein expressed by the pQE80 vector in E. coli
time to peak of ThT binding ([3]; 1 nM of seed added to Tau WT): ≤ 20 h
time to peak of ThT binding ([3]; 15 μM human Tau 40 WT, 8 μM heparin, 50 μM ThT): ≤ 70 h

Reference: patent US20250269058A1, “GENE THERAPY FOR TREATING NEURODEGENERATIVE DISEASES” (ABRAIN, priority 2021, published 2025)
